B2: SinR (wild type), master repressor of biofilm-related genes (natural protein, Bacillus subtilis)
chain: MIGQRIKQYRKEKGYSLSELAEKAGVAKSYLSSIERNLQTNPSIQFLEKVSAVLDVSVHTLLDEKHETEYDGQLDSEWEKLVRDAMTSGVSKKQFREFLDYQKWRKSQKEE
notes: SinR of Bacillus subtilis; Tetramer by analytical SEC; also called SinR^WT; wildtype SinR; source: E. coli BL21(DE3), purified (Ni-NTA, SEC)
B3: SinR-L99S variant (natural protein, Bacillus subtilis)
chain: MIGQRIKQYRKEKGYSLSELAEKAGVAKSYLSSIERNLQTNPSIQFLEKVSAVLDVSVHTLLDEKHETEYDGQLDSEWEKLVRDAMTSGVSKKQFREFSDYQKWRKSQKEE
notes: SinR of Bacillus subtilis with L99S, made by two-step PCR mutagenesis of the sinR construct in pET24d; L99S arose spontaneously in the wrinkly isolates (WTWS1, ΔhagWS2) during pellicle growth in the laboratory; the recombinant protein was made by site-directed mutagenesis; Tetramer by analytical SEC; source: E. coli BL21(DE3), purified (Ni-NTA, SEC)

Key:
SinI (Bacillus subtilis) = SinI (Bacillus subtilis) (UniProt P23308); settings: cited from earlier work
Sequence of SinI (Bacillus subtilis) (P23308 whole entry): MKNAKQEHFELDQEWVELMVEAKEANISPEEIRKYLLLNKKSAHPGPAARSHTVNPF

SinR-L99S = target: T1, SinR-L99S (Bacillus subtilis 168 (sequence …, UniProt P06533 1-111, L99S)); experiment: ITC; binding site 1 of two-sites model; comparable to wild type; ITC: buffer C (20 mM HEPES/NaOH, 500 mM NaCl; pH not stated for buffer C, 8.0 for buffers A/B), 25 °C; 30 µM SinR in cell, 150 µM IR-DNA titrated in; settings: protein: recombinant; tags: C-terminal His6; chain copies: 4; blunt
T1 sequence: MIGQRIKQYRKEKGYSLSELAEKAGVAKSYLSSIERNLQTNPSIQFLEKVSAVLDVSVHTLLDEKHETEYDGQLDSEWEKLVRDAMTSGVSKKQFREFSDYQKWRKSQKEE

SinR [1] = target: T2, SinR (Bacillus subtilis 168 (sequence …, UniProt P06533 1-111)); experiment: ITC; binding site 2 of two-sites model; N2 = 0.143 +/- 0.0123; ITC: buffer C (20 mM HEPES/NaOH, 500 mM NaCl; pH not stated for buffer C, 8.0 for buffers A/B), 25 °C; 30 µM SinR in cell, 150 µM IR-DNA titrated in; settings: protein: recombinant; tags: C-terminal His6; chain copies: 4; blunt
T2 sequence: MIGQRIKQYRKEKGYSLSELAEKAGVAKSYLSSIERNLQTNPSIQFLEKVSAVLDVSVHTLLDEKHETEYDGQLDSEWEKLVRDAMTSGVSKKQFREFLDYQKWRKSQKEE

SinR [2] = target: T2, SinR; experiment: ITC; binding site 1 of two-sites model; N1 = 0.264 +/- 0.0114; ITC: buffer C (20 mM HEPES/NaOH, 500 mM NaCl; pH not stated for buffer C, 8.0 for buffers A/B), 25 °C; 30 µM SinR in cell, 150 µM IR-DNA titrated in; settings: protein: recombinant; tags: C-terminal His6; chain copies: 4; blunt
[3] = target: the molecule itself; experiment: SEC; analytical SEC, Superdex 200 Increase 10/300 GL; SinR or SinR-L99S alone (tetrameric state also seen with IR-DNA)
SinR-L99S variant [4] = target: T3, SinR-L99S variant (Bacillus subtilis, UniProt P06533 1-111, L99S); experiment: ITC; second site (two-site model)
T3 sequence: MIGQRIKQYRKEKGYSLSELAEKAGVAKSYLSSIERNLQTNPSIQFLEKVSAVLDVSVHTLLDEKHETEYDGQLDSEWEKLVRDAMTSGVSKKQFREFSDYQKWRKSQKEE

SinR-L99S variant [5] = target: B3; experiment: ITC; 250 uM SinI 9-39 peptide titrated into 25 uM SinR or SinR-L99S in the cell, 25 °C, buffer C (20 mM HEPES/NaOH, 500 mM NaCl); apparent KD; one-site model for wild type, two-sites model for L99S; settings: both partners purified
[6] = target: B2; experiment: as above; settings: both partners purified
[7] = target: T4, SinR (wild type), master repressor of biofilm-related genes (Bacillus subtilis, UniProt P06533 1-111); experiment: ITC
T4 chain: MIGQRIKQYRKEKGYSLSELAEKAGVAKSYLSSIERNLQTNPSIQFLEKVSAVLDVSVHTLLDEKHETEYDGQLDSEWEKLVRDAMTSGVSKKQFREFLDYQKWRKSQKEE

SinR-L99S variant [8] = target: T3, SinR-L99S variant; experiment: ITC; first site (two-site model)

Question: For SinR (from UniProt P06533), which Kd (SinI (Bacillus subtilis)) is on record?
Answer: Its Kd is less than 10 nM.

B1: IR-DNA (SinR operator inverted repeat) (dsDNA)
DNA 1: TTTGTTCTCTAAAGAGAACTTA
DNA 2: TAAGTTCTCTTTAGAGAACAAA
Question: What does the source list for B1?
Answer: Kd (SinR-L99S): ~99 nM; Kd (SinR [1]): ~6 nM; Kd (SinR [2]): ~121 nM

Question: With B2 as the molecule, how does the “stoichiometry N” value [3] read?
Answer: Its value is 4.

Question: With B3 as the molecule, how does the “stoichiometry N” value [3] read?
Answer: Its value is 4.

B4: SinI^9-39 peptide (SinI protein from amino acid 9 to 39) (peptide, UniProt P23308 9-39, looked up)
peptide: FELDQEWVELMVEAKEANISPEEIRKYLLLN
notes: SinI, antagonist (anti-repressor) of SinR, Bacillus subtilis, amino acids 9-39; Synthesized with a free amine at the N-terminus and a free acid group at the C-terminus; also called SinI peptide; truncated version of SinI; source: synthetic peptide (peptides&elephants GmbH)
Question: With B4 as the molecule, how does the Ka (SinR-L99S variant [4]) read?
Answer: Its Ka is 1.75e+06 M⁻¹.

Question: What about the “KD site 1” value (SinR-L99S variant [5]) of the same molecule?
Answer: The value was roughly 162 nM.

Question: What about the “KD site 2” value (SinR-L99S variant [5]) of the same molecule?
Answer: The value was roughly 571 nM.

Question: What about the “dH binding event 1” value (SinR-L99S variant [5]) of the same molecule?
Answer: Its value is -3.93 ± 1.45 kcal/mol.

Question: And the “dH binding event 2” value (SinR-L99S variant [5])?
Answer: The value was -15.2 kcal/mol.

Question: And the “stoichiometry N” value (SinR-L99S variant [5])?
Answer: Its value is roughly 1.35.

Question: And the Kd [6]?
Answer: The Kd was roughly 7 nM.

Question: What about the dH [6] of the same molecule?
Answer: The dH was -3.75 ± 0.136 kcal/mol.

Question: What about the “stoichiometry N” value [6] of the same molecule?
Answer: The value was 1.2 ± 0.02.

Question: What about the Ka [7] of the same molecule?
Answer: Its Ka is 1.41e+08 M⁻¹.

Question: And the Ka (SinR-L99S variant [8])?
Answer: Its Ka is 6.16e+06 M⁻¹.

Reference: article PMC6192195, “Hampered motility promotes the evolution of wrinkly phenotype in Bacillus subtilis” (BMC Evolutionary Biology, 2018)
